Drawing on US20110059889A1 (SYNTONIX PHARMACEUTICALS, published 2011), this text covers IC50 and Kd for 14 molecules.

The target in assay [1] is T1, soluble human FcRn (shFcRn) (human, UniProt P55899 24-297; P61769 21-119).
T1 construct: Biotinylated for the ELISA, amine-coupled to a CM5 chip for SPR; also called biotinylated shFcRn
Kind of assay: IgG competition ELISA.
Protocol: (§1) The wells were coated with 100 μl/well of 1 μg/ml biotinylated-shFcRn in Buffer A. The plate was sealed and incubated at 37° C. for 2 hours. Afterwards, the plate was washed with 200 μl/well of Buffer B (Buffer B: 100 mM MES pH 6, 150 mM NaCl, 0.5% BSA IgG-free (Jackson ImmunoResearch, West Grove, Pa.), 0.05% Tween-20). […] To allow for mixing, the plate was rocked for 2 minutes, sealed and incubated at 37° C. for 2 hours. […] The plate was covered, incubated for 30 minutes at room temperature and washed 4 times with 200 μl/well of ice-cold buffer B. SureBlue TMB substrate solution (100 μl/well, KPL, Gaithersburg, Md.) was added and the plate was allowed to incubate at room temperature until color developed, which took 5 to 10 minutes. Once color developed, 100 μl/well of TMB stop solution (KPL, Gaithersburg, Md.) was added and the absorbance was measured at 450 nm. The data was plotted as absorbance vs. peptide concentration to derive the inhibitory concentration 50% (IC₅₀) values.

The target of assay [2] is T1, soluble human FcRn (shFcRn). Description: SPR pH 7.4.
Protocol: (§2) The following steps were performed to cross-link soluble human or cynomolgus FcRn to the dextran surface of a CM5 sensor chip (Biacore AB, Uppsala, Sweden) by an amine coupling reaction involving 1-ethyl-(3-dimethylaminopropyl)-carbodiimide hydrochloride (EDC) (Biacore AB, Uppsala, Sweden) and N-hydroxysuccinimide (NHS) (Biacore AB, Uppsala, Sweden) as recommended by Biacore (BIAapplications Handbook, version AB, section 4.2, Biacore AB, Uppsala, Sweden). […] Residual sites on the FcRn flow cell were blocked with 1 M ethanolamine hydrochloride pH 8.5 (Biacore AB, Uppsala, Sweden). A control flow cell was blocked with ethanolamine for reference subtraction. For analysis of the monomeric peptides, FcRn was coated to a final density of 4000-5000 response units (RU). For analysis of the peptide dimers, FcRn was coated to a density of 2000-2500 RU. All SPR measurements were performed using a BIACORE 3000 Instrument (Biacore AB Uppsala, Sweden). For measurements done at either pH 6 or pH 7.4, experiments were performed in 50 mM phosphate, 100 mM sodium chloride, 0.01% surfactant P20 (Biacore AB, Uppsala, Sweden).
(§3) Ten, 2-fold dilutions of the peptide were injected over the FcRn-CM5 chip at a rate of 20 μl/min for 2 min. The peptide was dissociated from the chip for 2.5 minutes with buffer. Any remaining peptide was removed from the chip with a 30 second injection of HBS-P buffer (Biacore AB, Uppsala, Sweden) at a rate of 30 μl/min. Sensorgrams were generated and analyzed using BiaEval software version 3.1 (Biacore AB, Uppsala, Sweden). The equilibrium RU observed for each injection was plotted against concentration. The equilibrium KD values were derived by analysis of the plots using the steady state affinity model included in the BiaEval software.
For assay [3] the target is unchanged. Kind of assay: IgG competition ELISA. The source holds these as a separate data set.
Protocol: as §1
Assay [4] has the same target. Description: IgG competition ELISA. The source holds these as a separate data set.
Protocol: as §1
For assay [5] the target is unchanged. Kind of assay: SPR pH 6.
Protocol: as §2, §3
For assay [6] the target is unchanged. Description: IgG competition ELISA. This is another data set of the same source.
Assay [7] shares this target. Kind of assay: IgG competition ELISA. This is another data set of the same source.

Read-outs that look alike come from different tables or passages of the source. Numbered stars: 1 amine (or outer) side, 2 acyl side, 3 side chain; on linkers, the order of the positions; unused ones are H or OH. Bridge positions count the residues as written; N and C are the ends. Square brackets hold non-standard residues; d marks the D form. Ends that are not written are not given here. X4 = (3S)‑3‑amino‑2‑oxo‑1‑piperidine‑acetic acid, O=C1[C@@H](N[*:1])CCCN1CC(=O)[*:2]; 5,5‑bicyclic dipeptide mimic = not defined here; Tyr(Me) = COc1ccc(C[C@H](N[*:1])C(=O)[*:2])cc1; Phe(3-Cl) = N[C@@H](Cc1cccc(Cl)c1)C(=O)O; Dip = N[C@H](C(=O)O)C(c1ccccc1)c1ccccc1; Phe(2-Cl) = N[C@@H](Cc1ccccc1Cl)C(=O)O; His(1-Me) = 1-methylhistidine; NMeL = CN[C@@H](CC(C)C)C(=O)O; Pen = CC(C)(S)[C@H](N)C(=O)O; hCys = N[C@@H](CCS)C(=O)O; Sar = CNCC(=O)O Some results are limits rather than exact numbers.

T1 sequence (P55899 24-297 limits assumed, chain 1 of 2): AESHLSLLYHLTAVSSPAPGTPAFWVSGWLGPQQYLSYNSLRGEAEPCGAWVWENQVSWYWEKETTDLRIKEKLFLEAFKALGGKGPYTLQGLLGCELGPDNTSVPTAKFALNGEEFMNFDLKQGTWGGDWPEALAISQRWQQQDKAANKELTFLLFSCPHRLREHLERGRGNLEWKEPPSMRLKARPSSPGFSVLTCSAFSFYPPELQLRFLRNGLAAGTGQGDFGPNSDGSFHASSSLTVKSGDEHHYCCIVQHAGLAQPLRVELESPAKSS
T1 sequence (P61769 21-119 limits assumed, chain 2 of 2): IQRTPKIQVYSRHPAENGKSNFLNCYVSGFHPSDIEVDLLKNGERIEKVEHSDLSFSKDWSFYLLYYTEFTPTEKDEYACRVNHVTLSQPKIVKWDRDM

B1: Peptide No. 193 (peptide)
peptide: RF[Pen]TGHF[X4]LYPC-NH2
modifications: disulfide 3-12; N-terminus assumed
SMILES: CC(C)C[C@@H]1NC(=O)CN2CCC[C@H](NC(=O)[C@H](Cc3ccccc3)NC(=O)[C@H](Cc3c[nH]cn3)NC(=O)CNC(=O)[C@H]([C@@H](C)O)NC(=O)[C@@H](NC(=O)[C@H](Cc3ccccc3)NC(=O)[C@@H](N)CCCNC(=N)N)C(C)(C)SSC[C@@H](C(N)=O)NC(=O)[C@@H]3CCCN3C(=O)[C@H](Cc3ccc(O)cc3)NC1=O)C2=O
For the molecule B1, the IC50 in assay [1] is 7.3 µM.

B2: Peptide No. 40 (peptide)
peptide: QRF[Pen]TGHFG[dP]LYPCNGP-NH2
modifications: disulfide 4-14; N-terminus assumed
SMILES: CC(C)C[C@@H]1NC(=O)[C@H]2CCCN2C(=O)CNC(=O)[C@H](Cc2ccccc2)NC(=O)[C@H](Cc2c[nH]cn2)NC(=O)CNC(=O)[C@H]([C@@H](C)O)NC(=O)[C@@H](NC(=O)[C@H](Cc2ccccc2)NC(=O)[C@H](CCCNC(=N)N)NC(=O)[C@@H](N)CCC(N)=O)C(C)(C)SSC[C@@H](C(=O)N[C@@H](CC(N)=O)C(=O)NCC(=O)N2CCC[C@H]2C(N)=O)NC(=O)[C@@H]2CCCN2C(=O)[C@H](Cc2ccc(O)cc2)NC1=O
Molecule B2 returned an equilibrium dissociation constant (Kd) in assay [2] of 1.1 µM. The IC50 in assay [3] is 1.4 µM. With RFCTGXFGGLYPC (Pen 3; Thz 6; Sar 9; NMeL 10; disulfide 3-13; C-terminal amide) [Peptide No. 248], in assay [4], the IC50 stood at 1.6 µM. Further, the dissociation constant Kd in assay [5] came out at 0.84 µM.

B3: Peptide No. 69 (peptide)
peptide: QRF[Pen]TGHFGGLYP[hCys]NGP-NH2
modifications: disulfide 4-14; N-terminus assumed
SMILES: CC(C)C[C@@H]1NC(=O)CNC(=O)CNC(=O)[C@H](Cc2ccccc2)NC(=O)[C@H](Cc2c[nH]cn2)NC(=O)CNC(=O)[C@H]([C@@H](C)O)NC(=O)[C@@H](NC(=O)[C@H](Cc2ccccc2)NC(=O)[C@H](CCCNC(=N)N)NC(=O)[C@@H](N)CCC(N)=O)C(C)(C)SSCC[C@@H](C(=O)N[C@@H](CC(N)=O)C(=O)NCC(=O)N2CCC[C@H]2C(N)=O)NC(=O)[C@@H]2CCCN2C(=O)[C@H](Cc2ccc(O)cc2)NC1=O
B3 yielded an IC50 in assay [6] of 2 µM.

B4: Peptide No. 266 (peptide)
peptide: RF[Pen]TGAFG[Sar][NMeL]YPC-NH2
modifications: disulfide 3-13; N-terminus assumed
SMILES: CC(C)C[C@H]1C(=O)N[C@@H](Cc2ccc(O)cc2)C(=O)N2CCC[C@H]2C(=O)N[C@H](C(N)=O)CSSC(C)(C)[C@H](NC(=O)[C@H](Cc2ccccc2)NC(=O)[C@@H](N)CCCNC(=N)N)C(=O)N[C@@H]([C@@H](C)O)C(=O)NCC(=O)N[C@@H](C)C(=O)N[C@@H](Cc2ccccc2)C(=O)NCC(=O)N(C)CC(=O)N1C
Consider B4, for which the IC50 in assay [4] is > 100 µM. In addition, the dissociation constant (Kd) in assay [5] amounted to 9.9 µM. In the case of QRFCTGHXGGLYPCNGP (Pen 4; 2-pyridylalanine 8; disulfide 4-14; C-terminal amide) [Peptide No. 58], in assay [7], the IC50 was found to be 90 µM.

B5: Peptide No. 224 (peptide)
peptide: RF[Pen]TGH[Dip]GGLYPC-NH2
modifications: disulfide 3-13; N-terminus assumed
SMILES: CC(C)C[C@@H]1NC(=O)CNC(=O)CNC(=O)[C@H](C(c2ccccc2)c2ccccc2)NC(=O)[C@H](Cc2c[nH]cn2)NC(=O)CNC(=O)[C@H]([C@@H](C)O)NC(=O)[C@@H](NC(=O)[C@H](Cc2ccccc2)NC(=O)[C@@H](N)CCCNC(=N)N)C(C)(C)SSC[C@@H](C(N)=O)NC(=O)[C@@H]2CCCN2C(=O)[C@H](Cc2ccc(O)cc2)NC1=O
On to B5, for which the IC50 in assay [7] is 32 µM.

B6: Peptide No. 239 (peptide)
peptide: RFCTGHFXLYPC
modifications: not fully specified; Pen 3; X 8 = 3(S)-3-amino-2-oxo-1-azepine acetic acid in place of Gly-Gly; NMeLeu 9; disulfide 3-12; C-terminal amide
In assay [1], B6 displayed an IC50 of 0.62 µM.

B7: Peptide No. 56 (peptide)
peptide: QRF[Pen]TGH[Tyr(Me)]GGLYPCNGP-NH2
modifications: disulfide 4-14; N-terminus assumed
SMILES: COc1ccc(C[C@@H]2NC(=O)[C@H](Cc3c[nH]cn3)NC(=O)CNC(=O)[C@H]([C@@H](C)O)NC(=O)[C@@H](NC(=O)[C@H](Cc3ccccc3)NC(=O)[C@H](CCCNC(=N)N)NC(=O)[C@@H](N)CCC(N)=O)C(C)(C)SSC[C@@H](C(=O)N[C@@H](CC(N)=O)C(=O)NCC(=O)N3CCC[C@H]3C(N)=O)NC(=O)[C@@H]3CCCN3C(=O)[C@H](Cc3ccc(O)cc3)NC(=O)[C@H](CC(C)C)NC(=O)CNC(=O)CNC2=O)cc1
With B7, the IC50 in assay [7] amounted to 100 µM. The molecule QRF[Pen]TG[His(1-Me)]FGGLYPCNGP-NH2 (disulfide 4-14) [Peptide No. 138] displayed a 50% inhibitory concentration (IC50) in assay [4] of 3.4 µM. The molecule also returned a Kd in assay [5] of 0.74 µM.

B8: Peptide No. 221 (peptide)
peptide: RF[Pen]TGH[Phe(2-Cl)]GGLYPC-NH2
modifications: disulfide 3-13; N-terminus assumed
SMILES: CC(C)C[C@@H]1NC(=O)CNC(=O)CNC(=O)[C@H](Cc2ccccc2Cl)NC(=O)[C@H](Cc2c[nH]cn2)NC(=O)CNC(=O)[C@H]([C@@H](C)O)NC(=O)[C@@H](NC(=O)[C@H](Cc2ccccc2)NC(=O)[C@@H](N)CCCNC(=N)N)C(C)(C)SSC[C@@H](C(N)=O)NC(=O)[C@@H]2CCCN2C(=O)[C@H](Cc2ccc(O)cc2)NC1=O
In the case of B8, in assay [7], the concentration for half-maximal inhibition (IC50) was 4 µM.

Consider RF[Pen]TGHF[5,5‑bicyclic dipeptide mimic]LYPC-NH2 (disulfide 3-12; reading uncertain, isomer only in drawing CHEM-US-00084) [Peptide No. 198], for which the IC50 in assay [1] was 23 µM.

B9: Peptide No. 33 (peptide)
peptide: QRFCTGHFGGLYP[Pen]NGP-NH2
modifications: disulfide 4-14; N-terminus assumed
SMILES: CC(C)C[C@@H]1NC(=O)CNC(=O)CNC(=O)[C@H](Cc2ccccc2)NC(=O)[C@H](Cc2c[nH]cn2)NC(=O)CNC(=O)[C@H]([C@@H](C)O)NC(=O)[C@@H](NC(=O)[C@H](Cc2ccccc2)NC(=O)[C@H](CCCNC(=N)N)NC(=O)[C@@H](N)CCC(N)=O)CSSC(C)(C)[C@@H](C(=O)N[C@@H](CC(N)=O)C(=O)NCC(=O)N2CCC[C@H]2C(N)=O)NC(=O)[C@@H]2CCCN2C(=O)[C@H](Cc2ccc(O)cc2)NC1=O
B9 returned an IC50 in assay [6] of 18 µM.

B10: Peptide No. 222 (peptide)
peptide: RF[Pen]TGH[Phe(3-Cl)]GGLYPC-NH2
modifications: disulfide 3-13; N-terminus assumed
SMILES: CC(C)C[C@@H]1NC(=O)CNC(=O)CNC(=O)[C@H](Cc2cccc(Cl)c2)NC(=O)[C@H](Cc2c[nH]cn2)NC(=O)CNC(=O)[C@H]([C@@H](C)O)NC(=O)[C@@H](NC(=O)[C@H](Cc2ccccc2)NC(=O)[C@@H](N)CCCNC(=N)N)C(C)(C)SSC[C@@H](C(N)=O)NC(=O)[C@@H]2CCCN2C(=O)[C@H](Cc2ccc(O)cc2)NC1=O
Molecule B10 returned an IC50 in assay [7] of 3.7 µM.
